Data on 3 molecules can be found in patent US20120058906A1 (published 2012).

Positions count from the first letter of the chain named.

The target of experiment [1] is T1, rHuman P-Cadherin/Fc Chimera, CF (R&D Systems Cat#861-PC) (human, UniProt P22223 108-654).
T1 construct: Bought Fc chimera; also called CDH3; Fc part of the bought chimera not given
Nature of the experiment: ECL (MSD Multi-Spot) binding assay, antigen spotted on plate; Fab 480 nM; blank spot 362.

Experiment [2] deals with T2, rHuman Notch-1/Fc Chimera, CF (R&D Systems Cat#3647-TK) (human, UniProt P46531 19-526).
T2 construct: Bought Fc chimera; Fc part of the bought chimera not given
Described as above.

Experiment [3] addresses T3, rHuman CD44/Fc Chimera, CF (R&D Systems Cat#3660-CD) (human, UniProt P16070 21-220).
T3 construct: Bought Fc chimera; Fc part of the bought chimera not given
Described as above.

For experiment [4], the target named is T4, rHuman Erythropoietin R/Fc Chimera, CF (R&D Systems Cat#963-ER) (human, UniProt P19235 25-250).
T4 construct: Bought Fc chimera; also called EPO R/Fc; Epo R; Fc part of the bought chimera not given
T4 sequence: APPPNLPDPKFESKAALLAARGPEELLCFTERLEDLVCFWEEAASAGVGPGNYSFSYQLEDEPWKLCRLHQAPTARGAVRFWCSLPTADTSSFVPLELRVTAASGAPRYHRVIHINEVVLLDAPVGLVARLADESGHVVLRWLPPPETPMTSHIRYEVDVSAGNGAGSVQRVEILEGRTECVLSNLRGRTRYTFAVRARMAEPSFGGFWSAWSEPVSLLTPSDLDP
The experiment is described as above.

The target in experiment [5] is T5, Recombinant Human DLL4 (R&D Systems Cat#1506-D4/CF) (human, UniProt Q9NR61 27-524).
T5 construct: Bought recombinant protein; also called delta-like protein 4; rHuman DLL4
Described as above.

Experiment [6] deals with T6, Recombinant Human DLL4 (R&D Systems Cat#1506-D4/CF) (human, UniProt Q9NR61 27-524).
T6 construct: Bought recombinant protein; also called rHuman DLL4; delta-like protein 4
The experiment in a line: MSD ECL titration, Fab 0.6 nM, blank 226.

The target in experiment [7] is T7, rHuman ErbB2/Fc Chimera, CF (R&D Systems Cat#1129-ER) (human, UniProt P04626 23-652).
T7 construct: Bought Fc chimera; also called HER2/neu; Fc part of the bought chimera not given
The experiment in a line: MSD ECL titration, Fab 0.6 nM, blank 226.

Experiment [8] addresses T8, rHuman HGF R/c-MET/Fc Chimera, CF (R&D Systems Cat#358-MT/CF) (human, UniProt P08581 25-932).
T8 construct: Bought Fc chimera; also called HGF R/Fc; Fc part of the bought chimera not given
The experiment in a line: MSD ECL titration, Fab 0.6 nM, blank 226.

In experiment [9] the target is T9, rHuman Erythropoietin R/Fc Chimera, CF (R&D Systems Cat#963-ER) (human, UniProt P19235 25-250).
T9 construct: Bought Fc chimera; also called EPO R/Fc; EPOR; Fc part of the bought chimera not given
T9 sequence: T4 sequence
Nature of the experiment: MSD ECL titration, Fab 0.6 nM, blank 226.

The target in experiment [10] is T10, rHuman CD44/Fc Chimera, CF (R&D Systems Cat#3660-CD) (human, UniProt P16070 21-220).
T10 construct: Bought Fc chimera; Fc part of the bought chimera not given
The experiment in a line: MSD ECL titration, Fab 0.6 nM, blank 226.

The target of experiment [11] is T11, rHuman P-Cadherin/Fc Chimera, CF (R&D Systems Cat#861-PC) (human, UniProt P22223 108-654).
T11 construct: Bought Fc chimera; Fc part of the bought chimera not given
Nature of the experiment: MSD ECL titration, Fab 0.6 nM, blank 226.

The target in experiment [12] is T12, rHuman EGF R/Fc Chimera, CF (R&D Systems Cat#344-ER) (human, UniProt P00533 25-645).
T12 construct: Bought Fc chimera; Fc part of the bought chimera not given
The experiment in a line: MSD ECL titration, Fab 0.6 nM, blank 226.

Experiment [13] addresses T13, rHuman IGF-1 sR (insulin-like growth factor-1 soluble receptor), CF (R&D Systems Cat#391-GR) (human, UniProt P08069 31-932).
T13 construct: Bought soluble receptor; also called IGF-R1
The experiment in a line: MSD ECL titration, Fab 0.6 nM, blank 226.

Experiment [14] concerns the target T14, rHuman Notch-1/Fc Chimera, CF (R&D Systems Cat#3647-TK) (human, UniProt P46531 19-526).
T14 construct: Bought Fc chimera; Fc part of the bought chimera not given
Nature of the experiment: MSD ECL titration, Fab 0.6 nM, blank 226.

The target in experiment [15] is T15, rHuman HGF R/c-MET/Fc Chimera, CF (R&D Systems Cat#358-MT/CF) (human, UniProt P08581 25-932).
T15 construct: Bought Fc chimera; also called HGF R/Fc; not shown: Fc of the bought chimera
Nature of the experiment: ECL (MSD multi-spot), antigen on plate, Fab 50 nM.

For experiment [16], the target named is T16, rHuman CD44/Fc Chimera, CF (R&D Systems Cat#3660-CD) (human, UniProt P16070 21-220).
T16 construct: Bought Fc chimera; not shown: Fc of the bought chimera
Nature of the experiment: ECL (MSD multi-spot), antigen on plate, Fab 50 nM.

In experiment [17] the target is T17, rHuman ErbB2/Fc Chimera, CF (R&D Systems Cat#1129-ER) (human, UniProt P04626 23-652).
T17 construct: Bought Fc chimera; also called HER2/neu; not shown: Fc of the bought chimera
The experiment in a line: ECL (MSD multi-spot), antigen on plate, Fab 50 nM.

For experiment [18], the target named is T18, rHuman EGF R/Fc Chimera, CF (R&D Systems Cat#344-ER) (human, UniProt P00533 25-645).
T18 construct: Bought Fc chimera; also called ErbB-1; not shown: Fc of the bought chimera
Nature of the experiment: ECL (MSD multi-spot), antigen on plate, Fab 50 nM.

Experiment [19] addresses T19, rHuman P-Cadherin/Fc Chimera, CF (R&D Systems Cat#861-PC) (human, UniProt P22223 108-654).
T19 construct: Bought Fc chimera; also called CDH3; not shown: Fc of the bought chimera
The experiment in a line: ECL (MSD multi-spot), antigen on plate, Fab 50 nM.
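Also: blank spot per well as comparator with Hit at signal to blank ratio of 4 or more.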

B1: Fab VH6-1_IGHD3-3*01_IGHJ4*01 & V4-3_IGLJ4*01 (Fab, V domains shown)
VH: QVQLQQSGPGLVKPSQTLSLTCAISGDSVSSNSAAWNWIRQSPSRGLEWLGRTYYRSKWYNDYAVSVKSRITINPDTSKNQFSLQLNSVTPEDTAVYYCAREYYDFWSGYYTDYFDYWGQGTLVTVSS
VL: QPVLTQPTSLSASPGASARLTCTLRSGINLGSYRIFWYQQKPESPPRYLLSYYSDSSKHQGSGVPSRFSGSKDASSNAGILVISGLQSEDEADYYCMIWHSSASFVFGGGTQLIIL
notes: Tested as a Fab made in E. coli; also called IGHV6-1*01
As to B1, the ECL signal worked out at 596 in [1]; 545 in experiment [2]; 541 in experiment [3]; 621 in [4]; 1530 in [5].

B2: Fab VH1-46_IGHD6-6*01_IGHJ1*01 & L6_IGKJ1*01 (Fab, V domains shown)
VH: QVQLVQSGAEVKKPGASVKVSCKASGYTFTSYYMHWVRQAPGQGLEWMGIINPSGGSTSYAQKFQGRVTMTRDTSTSTVYMELSSLRSEDTAVYYCAREEYSSSSAEYFQHWGQGTLVTVSS
VL: not shown
notes: Expressed in E. coli as Fab: heavy chain with CH1 plus Flag and His tags from Plasmid A, kappa light chain constant region from Plasmid C; also called Fab No. 1
For the molecule B2, the ECL signal in experiment [6] was 508; in experiment [7] it was 215; in experiment [8] it was 256; in [9], 337; in experiment [10] it was 238; in experiment [11], 321. The ECL signal turned out to be 309 in [12], 313 in experiment [13] and 337 in experiment [14].

B3: Fab VH1-46_IGHD6-6*01_IGHJ1*01_S102A_S103P_S104F & L6_IGKJ1*01_S31K (Fab, V domains shown)
VH: B2 VH with S102A, S103P, S104F
VL: EIVLTQSPATLSLSPGERATLSCRASQSVSKYLAWYQQKPGQAPRLLIYDASNRATGIPARFSGSGSGTDFTLTISSLEPEDFAVYYCQQRSNWPPWTFGQGTKVEIKR
notes: Fab
As to B3, the ECL signal in experiment [15] turned out to be 257 ECL signal; in experiment [16], 262 ECL signal; in experiment [17], 397 ECL signal; in experiment [18], 350 ECL signal; in [19] it was 411 ECL signal.
